Laboratory results as given in patent US10945997B2, “Polymer derivative of macrolide immunosuppressant” (Nippon Kayaku Kabushiki Kaisha, priority 2016, dated 2021).
Where two headings read alike, the source gives them in different places. Marks after values point to notes of the source that are not given here.

Tests used:
[1] = rats; cited from earlier work
[2] = Blood concentration profile in rats (1)
Experimental: Blood Concentration Profile in Rats (1)
(§1) At 5 minutes, 1 hour, 6 hours, 24 hours, and 72 hours after administration, blood was collected through the jugular vein under isoflurane anesthesia successively in an amount of 0.3 mL each time, and the tacrolimus concentration in the collected blood was measured.

[3] = rat, in vivo, iv, 5 mg/kg
Experimental: Blood Concentration Profile in Rats (1)
as §1

[4] = tested on: rat collagen-induced arthritis; assay: Anti-inflammatory effect for rat collagen-induced arthritis (1); assay type: in vivo; conditions: 5 mg/kg, q7 d × 4, i.v., DA rats, average score 0-5, footnote: Score 29 d
Experimental: Anti-Inflammatory Effect for Rat Collagen-Induced Arthritis (1)
0.3 mg of bovine articular cartilage-derived type II collagen (immunological grade; Collagen Research Center, Ltd.) was intradermally administered on the dorsal side of nine-week old female DA rats (Japan SLC, Inc.), and thereby collagen-induced arthritis was induced in the rats. […] As a control, a non-administered group was provided. Determination of arthritis was made by scoring based on visual inspection.
From the time point after the sensitization with bovine articular cartilage-derived type II collagen, the progress of inflammation in the right hind limb and the left hind limb was monitored. It was determined that the onset of collagen-induced arthritis occurred when reddening was recognized in the toes of the right hind limb or the left hind limb. The extent of arthritis was evaluated in six stages according to the following scores from 0 to 5. […]

Tmax ([2]; female SD rats, i.v. once 5 mg/kg, tacrolimus in blood) [min]	concentration at 72 h ([2]; female, SD, rat, whole blood, iv, 5 mg/kg) [ng/mL]	Compound	signs caused by intravenous administration [1]	AUCinf. [3] [µg·h/mL]	Cmax [3] [ng/mL]	MRTinf. [3] [h]	MRTinf. compared to tacrolimus [3]	Tmax [3] [min]	T½ [3] [h]	blood concentration half-life compared to tacrolimus [3]	Arthritis score (29 d) [4]
5	0.273	C=CC[C@@H]1/C=C(\C)C[C@H](C)C[C@H](OC)[C@H]2O[C@@](O)(C(=O)C(=O)N3CCCC[C@H]3C(=O)O[C@H](/C(C)=C/[C@@H]3CC[C@@H](O)[C@H](OC)C3)[C@H](C)[C@@H](O)CC1=O)[C@H](C)C[C@@H]2OC [Tacrolimus, tacrolimus]	slight respiratory distress, a decrease in locomotor activity, a prone position, stereotyped behavior								
		Tacrolimus-Bonded Polyethylene Glycol-αβ-Polyaspartic Acid Block Copolymer [Comparative Example 1]		1.05	280	11.6	prolongation	5	9.57	prolongation	2.6*
